Like-named read-outs stand apart in the source and are kept apart here. Where only a bound is given, the exact number is not on record here.

Consider two compounds from article PMC12844804, “Paving the Way for CCK2R-Targeted Peptide Receptor Radionuclide Therapy with [^177Lu]Lu-DOTA-MGS5 in Patients with Small Cell Lung Cancer” (Pharmaceutics, 2026).

Series [1] concerns A431-CCK2R cells. The note with it: ~100 nM, 24 h treatment, 12 days colony formation, mean ± SD of four independent experiments in triplicate.
Experimental: After this treatment, the medium was aspirated and the cells were gently washed twice with phosphate-buffered saline (PBS) and then incubated at 37 °C for 12 days to allow colony formation. At the end of the incubation period, the culture medium was removed, and the wells were gently rinsed twice with PBS.
Colonies were fixed by adding 1 mL of a 3:1 methanol–glacial acetic acid solution to each well and incubated for 20 min at room temperature in a chemical hood. The solution was removed and the fixed cells gently rinsed twice with 1 mL of PBS.
Staining was performed using 1 mL of Giemsa stain (modified solution; Sigma-Aldrich, St. Louis, MO, USA, CAS No. 32884) diluted 3.5:10 in Milli-Q water. Plates were incubated with the staining solution for 2 h at room temperature. After staining, wells were rinsed twice with Milli-Q water, and plates were inverted on absorbent paper to air-dry.
Colonies were counted manually, with each visible purple-stained cluster considered as one colony. […] Each data point represents the mean ± standard deviation (SD) of four independent experiments, each performed in triplicate.
For the next series, the system named is patient with ED-SCLC. The format is in vivo, human. From the text: A patient diagnosed with SCLC (initial stage: T4 N3 M1b with primary tumor of the left central lung and possible metastasis to the left adrenal gland) completed first-line systemic therapy with carboplatin/etoposide/atezolizumab (schedule: day 1–day 3, every three weeks) followed by maintenance therapy with atezolizumab and prophylactic cranial irradiation (fractions of 2 Gy each, reaching a total dose of 30 Gy; cognitive preservation with memantine). Subsequently, the entire primary tumor region, including the selectively involved lymph nodes on the left central side, was irradiated (fractions of 2 Gy, resulting in a total dose of 60 Gy). After completing EBRT approximately six months after diagnosis, the disease remained stable for the following four months. Ten months after diagnosis, a new metastasis to the right adrenal gland occurred, and re-induction therapy with carboplatin/etoposide/atezolizumab was administered (a total of four cycles; schedule: day 1–day 3, every three weeks). In the follow-up CT scan, progressive disease was identified again, and third-line therapy with cyclophosphamide/doxorubicin/vincristine was initiated (a total of four cycles; schedule: day 1–day 2, every three weeks). […] After 2 cycles, the disease again progressed. This time, there was progression of the primary tumor, liver metastases and new lymph node metastases. Thus, alternative image-guided treatment strategies were evaluated. […] Thus, the patient was considered eligible for PRRT with [^177Lu]Lu-DOTA-MGS5. PRRT was performed under the responsibility of the treating physician and after tumor board approval. According to the Austrian Medicines Act (Arzneimittelgesetz §8), named patient use (“Heilversuch”) was not subject to authorization by or notification to the authorities. Written informed consent was obtained from the patient. All procedures were in accordance with the principles of the 1964 Declaration of Helsinki and its subsequent amendments. The retrospective analysis of the data of the patient was exempted from consultation with the Ethics Committee by the Medical University of Innsbruck.
Adequate hydration was ensured through intravenous infusion of 1000 mL of 0.9% saline solution at a rate of 300 mL/h, starting 30 min before and continuing for 2 h after treatment administration. The patient received prophylactic antiemetic therapy with 4 mg ondansetron, as well as 4 mg dexamethasone and 40 mg pantoprazole, given 20 min before the treatment. Prophylactic antiemetic therapy was repeated 12 h after therapy.
[^177Lu]Lu-DOTA-MGS5 was administered intravenously via a dedicated peristaltic infusion pump system over a period of 15–20 min. The patient was discharged at the third day following therapy. The treatment was repeated approximately every four weeks.
Whole-body SPECT/CT after each therapy cycle was performed using a dual-head SPECT/CT system (NM/CT 870 DR; GE Healthcare, Chicago, IL, USA) approximately 24 h after injection of [^177Lu]Lu-DOTA-MGS5. The acquisition consisted of 60 projections over 360° with an angular step of 6° and a dwell time of 20 s per projection. A medium-energy general-purpose collimator was used. The primary energy window was set to 187.2–228.8 keV and the scatter window to 169.1–186.9 keV. SPECT images were reconstructed using the manufacturer’s proprietary algorithms (OSEM with resolution recovery), using 2 iterations and 10 subsets and no post-reconstruction filtering. The reconstructed matrix size was 128 × 128, with a pixel size of 4.42 mm. Photon scatter correction was performed using the dual energy window method, and attenuation correction was performed using a low-dose CT scan acquired at 120 kVp, 30 mAs effective, with CareDose4D activated. Whole-body planar imaging was performed in anterior and posterior views using the same system. The scan was conducted in supine position, feet-first orientation. The table traversed 1.14 m at a speed of 10 cm/min. […]

In series [2] the test system is A431-CCK2R cells. The format is cell-based, human. The note with it: ~250 kBq, 2 nM/well; for relative viability: viability 72 h after treatment, % of non-irradiated control, n = 3. The method, then:
To investigate the cytotoxic effect of [^177Lu]Lu-DOTA-MGS5 on A431-CCK2R cells in comparison with EBRT, cells were counted using a TC20 automated cell counter (Bio-Rad Laboratories, Hercules, CA, USA), seeded at a density of 1 × 10^5 cells per well in 6-well plates and incubated at 37 °C with 5% CO2. After 24 h, cells were irradiated with varying doses (2, 4 and 8 Gy) using a linear accelerator (Elekta Precise, Elekta Oncology Systems, Crawley, England, UK) or by incubation with [^177Lu]Lu-DOTA-MGS5 (~250 kBq, 2 nM/well) for 4 and 24 h followed by replacement with fresh medium. Incubation periods of 4 h and 24 h were selected based on the previously established internalization kinetics and the stability data obtained for [^177Lu]Lu-DOTA-MGS5 [25]. At the time point of 72 h after treatment, cell viability was assessed using a Beckman Coulter Vi-CELL AS cell viability analyzer (Beckman Coulter, Fullerton, CA, USA). The supernatant from each well was collected in 15 mL Falcon tubes. Cells were then washed twice with 1 mL of serum-free medium, and the wash fractions were combined with the respective supernatants. Trypsin (300 µL) was added to each well, and plates were incubated until detachment. Following detachment, 1 mL of medium was added to each well, and cells were rinsed and transferred to their respective Falcon tubes. This washing step was repeated twice, reaching a total volume of 3 mL. Cells were pelleted by centrifugation in a benchtop centrifuge (Megafuge™ 8; Thermo Fisher Scientific, Waltham, MA, USA) at 2000 rpm for 8 min at 4 °C, and the supernatant was discarded. Pellets were resuspended in 1 mL of cold serum-free medium. Samples were loaded into the Vi-CELL AS analyzer according to the manufacturer’s instructions. The number of viable cells in each treatment group was normalized to the mean number of viable cells in the non-irradiated control group and expressed as a percentage of the control.

The conditions of series [3]: human, in vivo. As for the experimental part: For dosimetry, both planar and SPECT/CT imaging were performed at nominal time points of 30 min and 4, 24, 72 and 96 h post-injection (p.i.). The acquisition protocol for the first three time points followed the procedure described above. For the 72 and 96 h scans, the dwell time per projection for SPECT acquisition was increased to 24 s, and the planar scan speed was reduced to 8 cm/min to compensate for the reduced count statistics at later time points. The gamma camera sensitivity was calibrated according to the GE Healthcare-recommended protocol (DICOM Conformance Statement: NM General Purpose 600/800 Series, Rev. 15, 2018). A Petri dish containing a known activity of lutetium-177 was used as the calibration source, yielding a calibration factor of 5.2 cps/MBq. To correct for partial volume effects (PVEs), recovery coefficients (RCs) were determined using an IEC-NEMA phantom with fillable spheres of varying diameters, and a Jaszczak phantom containing a 60 mm sphere (Data Spectrum Corporation, Hillsborough, NC, USA). For each sphere, RCs were calculated, and a logarithmic regression model was fitted to generate a recovery curve. Two selected well-delineable lesions were segmented on 24 h p.i. SPECT images using a 41% isocontour threshold in Affinity 3.0 (Hermes Medical Solutions, Stockholm, Sweden). Subsequently, SUVmax values normalized to body weight were computed and corrected for PVEs using the corresponding RCs. […] (Supplementary Figure S3A). […] Additionally, the mean absorbed dose to the tumor was 12.5 ± 10.2 Gy/GBq (range: 1.2-28 Gy/GBq) across five well-delineated lesions. The time-activity curves for kidneys, stomach wall and two selected lesions were fitted and extrapolated using non-linear regression. […] A tri-exponential function was used for the kidneys, while a bi-exponential model (with k3 = 0) was applied for the stomach wall and the two lesions. […]

The conditions of series [4]: human, in vivo, iv; cited from earlier work. The method, then: Due to disease progression observed at the radiologic follow-up examination during fourth-line treatment with topotecan (Figure 4a–f) and following confirmation of intense tracer uptake on [^68Ga]Ga-DOTA-MGS5 PET/CT, the patient underwent a preliminary dosimetric evaluation with [^177Lu]Lu-DOTA-MGS5 to calculate the absorbed dose to organs at risk and the tumor. After the intravenous administration of 1.5 GBq [^177Lu]Lu-DOTA-MGS5 (corresponding to a peptide dose of less than 100 µg), scintigraphic images were acquired at 30 min, 4 h, 24 h, 72 h and 96 h p.i. (Supplementary Figure S3A). As prev ...

Series [5] has as its system patients with advanced MTC. The note with it: human, in vivo; cited from earlier work. As for the experimental part: So far, ^177Lu-labeled peptides targeting CCK2R have been used for PRRT in patients with advanced MTC. […] In a dose escalation study, six patients with advanced MTC were treated with up to three to four cycles of [^177Lu]Lu-PP-F11N (3 × 6 GBq or 4 × 8 GBq) ...

For `CCCC[C@@H](C(=O)N[C@@H](CC(=O)O)C(=O)N[C@@H](Cc1cccc2ccccc12)C(N)=O)N(C)C(=O)[C@H](Cc1c[nH]c2ccccc12)NC(=O)CNC(=O)[C@H](Cc1ccc(O)cc1)NC(=O)[C@H](C)NC(=O)[C@@H](CCC(=O)O)NC(=O)CN1CCN(CC(=O)O)CCN(CC(=O)O)CCN(CC(=O)O)CC1` [[^177Lu]Lu-DOTA-MGS5, metal not drawn], the clonogenic survival in the series with A431-CCK2R cells [1] (2 MBq/well) stood at 54.9 ± 10.9%. In addition, the clonogenic survival in the series on A431-CCK2R cells [1] (250 kBq/well) worked out at 82.7 ± 6.5%. For the same compound, the “change of SUVmax in two well-delineated lesions” value with patient with ED-SCLC (SPECT 24 h p.i., dosimetry and first three cycles, PVE corrected) is “only a minor decrease”. The “uptake in new disseminated liver metastases” value in the series on patient with ED-SCLC (SPECT/CT after the fourth cycle) is “negative”. For the same compound, the clinical symptoms entry in the series with patient with ED-SCLC (after the second administration) was “improvement”. Moreover, the “lesion uptake on serial SPECT/CT after each treatment cycle” value in the series with patient with ED-SCLC (approximately 24 h p.i.) is recorded as “overall stable uptake”. Besides, the “follow-up contrast-enhanced CT finding” value in the series on patient with ED-SCLC (at the fourth cycle of PRRT) is “continued disease progression”. In addition, in the series with patient with ED-SCLC (human, in vivo), the GGT is on record as 74 U/L, the GOT came out at 44 U/L, the GPT is on record as 14 U/L and the “Karnofsky Index” value was determined as 100%. In addition, in the series with patient with ED-SCLC (human, in vivo), the “absorbed dose delivered to the tumor lesions during PRRT, range” value is given as 21-482 Gy; the “absorbed dose of healthy tissue, bone marrow” value was found to be 0.4 Gy; the “absorbed dose of healthy tissue, kidneys” value stood at 5 Gy; the absorbed dose of healthy tissue, stomach was 7 Gy. In the series on patient with ED-SCLC (human, in vivo), the “adverse effect following the first administration” value is reported as “mild nausea”; the creatinine amounted to 0.64 mg/dL; the eGFR was > 60 mL/min/1.73 m^2; the “hematological, renal or hepatic toxicities in laboratory tests” value is “no hematological, renal or hepatic toxicities”. In addition, in the series with patient with ED-SCLC (human, in vivo), the “mean absorbed dose delivered to the tumor lesions during PRRT” value came to 215 Gy and the weight loss result is “approximately 2 kg”. Also, the NSE levels entry with patient with ED-SCLC (tumor marker during four administrations) is recorded as “slight reduction after the first three administrations but increased by the fourth administration”. The “EBRT dose with comparable response” value in the series with A431-CCK2R cells [2] (4 h and 24 h incubation, compared with EBRT 2, 4 and 8 Gy) is 2-4 Gy. Moreover, in the series with A431-CCK2R cells [2] (4 h incubation), the relative viability was 58.5 ± 3.3%. In the series with A431-CCK2R cells [2] (24 h incubation), this compound showed a relative viability of 55.5 ± 8.3%. Besides, in series [3], the “tracer clearance kinetics, CCK2R-positive stomach wall” value is “slower and more prolonged washout”; the “tracer clearance kinetics, kidneys” value is reported as “rapid initial decline in activity”; the “tracer clearance kinetics, thoracic wall lesion and gastrointestinal tract lesion” value is reported as “gradual mono-exponential decrease in activity”. Also, in series [4], the “absorbed dose to the bone marrow” value is 0.022 Gy/GBq; the “absorbed dose to the kidneys” value was 0.28 Gy/GBq; the “absorbed dose to the stomach” value is 0.42 Gy/GBq; the “absorbed dose to the tumor, range” value is 1.2–28 Gy/GBq. Also, the “mean absorbed dose to the tumor” value in series [4] is 12.5 ± 10.2 Gy/GBq.

As for “DOTA-(DGlu)6-Ala-Tyr-Gly-Trp-Nle-Asp-Phe-NH2 [[^177Lu]Lu-PP-F11N, ^177Lu-labeled CCK2R-targeting agonist]”, in series [5], the dose-limiting toxicity entry is listed as “without signs of dose-limiting toxicity” and the “median absorbed tumor dose” value is 0.88 Gy/GBq.
